“And” between values parts separate entries of the source, which are not always exact repeats. Equal values may be shown once. *1 amine or outer side, *2 acyl side, *3 side chain or, on linkers, in order; H or OH if unused. Bridges are numbered along the chain shown (N, C = ends). Primed or numbered codes have the meaning given here. Where no end group is shown, it is not given here. [ ]: non-standard residue; d: D form. MSR‑C = 1-[4-[4-[4,6-bis[4-[1-(2-chloroacetyl)-4-piperidyl]piperazin-1-yl]-1,3,5-triazin-2-yl]piperazin-1-yl]-1-piperidyl]-2-chloro-ethanone, O=C(C[*:1])N1CCC(N2CCN(c3nc(N4CCN(C5CCN(C(=O)C[*:2])CC5)CC4)nc(N4CCN(C5CCN(C(=O)C[*:3])CC5)CC4)n3)CC2)CC1; MSR‑F = 1-[4-[4-[4,6-bis[4-[4-(2-chloroacetyl)piperazin-1-yl]phenyl]-1,3,5-triazin-2-yl]phenyl]piperazin-1-yl]-2-chloro-ethanone, O=C(C[*:1])N1CCN(c2ccc(-c3nc(-c4ccc(N5CCN(C(=O)C[*:2])CC5)cc4)nc(-c4ccc(N5CCN(C(=O)C[*:3])CC5)cc4)n3)cc2)CC1; MSR‑B = molecular scaffold reagent B, 2,4,6-tris[4-(bromomethyl)phenyl]-1,3,5-triazine, c1cc(-c2nc(-c3ccc(C[*:2])cc3)nc(-c3ccc(C[*:3])cc3)n2)ccc1C[*:1]; MSR‑B(3) = molecular scaffold reagent 2,4,6-tris[4-(bromomethyl)phenyl]-1,3,5-triazine, c1cc(-c2nc(-c3ccc(C[*:2])cc3)nc(-c3ccc(C[*:3])cc3)n2)ccc1C[*:1]; MSR‑G = scaffold reagent with three vinyl sulfonyl Michael acceptors (C9H15N3O6S3), O=S(=O)(CC[*:1])N1CN(S(=O)(=O)CC[*:2])CN(S(=O)(=O)CC[*:3])C1; MSR‑H = 1-[4-(bromomethyl)phenyl]-N,N-bis[[4-(bromomethyl)phenyl]methyl]methanamine, c1cc(C[*:1])ccc1CN(Cc1ccc(C[*:2])cc1)Cc1ccc(C[*:3])cc1; MSR‑B″ = 2,4,6-tris[4-(bromomethyl)phenyl]-1,3,5-triazine, c1cc(-c2nc(-c3ccc(C[*:2])cc3)nc(-c3ccc(C[*:3])cc3)n2)ccc1C[*:1]; MSR‑E = scaffold reagent with three bromomethyl groups (C27H24Br3N3O3); 1Nal = N[C@@H](Cc1cccc2ccccc12)C(=O)O; Tle = CC(C)(C)[C@H](N)C(=O)O; MSR‑D = not defined here
B1: Compound I-109 (peptide)
peptide: YTECWVDGWVPY
modifications: also: cyclised via a tyrosine linkage to an unnamed scaffold, places not given here
notes: also called 1-109
B2: Compound I-108 (peptide)
peptide: CTEYWVDGWVPC
modifications: also: cyclised via a tyrosine linkage to an unnamed scaffold, places not given here
notes: also called 1-108

target: human carbonic anhydrase IX (human, UniProt Q16790 38-414); assay: competition fluorescence polarization, tracer SEQ ID NO: 11, n = 2

| Ki | Binder |
| --- | --- |
| ≥ 500 nM and < 1000 nM | B1 |
| < 500 nM | CTECWVDGWVPC (linker 1-4-12 via MSR‑B(3) (inferred), also called 1-98) [Compound I-98] |
| < 500 nM | B2 |

target: T1, MT1-MMP hemopexin domain (UniProt P50281 319-511); assay: MT1-MMP direct binding fluorescence polarization (as titled), n = 2
T1 construct: domain: hemopexin domain; also called MMP14; membrane type 1 metalloprotease
Method: Example 5: Dissociation Rate Constant Determination of Bicyclic Binders to MT1-MMP Direct Binding Fluorescence Polarization (Anisotropy) Assays Direct Binding Fluorescence Polarization or Anisotropy Assays are performed by titrating a constant concentration of fluorescent tracer (here, the fluoresceinated bicyclic peptide to be studied) with its binding partner (here, the MT1-MMP hemopexin domain). As the concentration of binding partner increases during the titration, the polarization signal changes in proportion to the fraction of bound and unbound material. This allows determination of […] (K_d) quantitatively. Assay data can be fit using standard ligand binding equations.
Typically, concentrations of the tracer are ideally well below the K_d of the tracer:titrant pair, and concentrations chosen are usually at ~1 nM or less. The titrant (binding partner) concentration is varied from 0.1 nM up to typically 5 μM. The range is chosen such that the maximum change in fluorescent polarization can be observed. Buffers employed are phosphate buffered saline in the presence of 0.01% Tween. Experiments were run in black 384 well low-bind/low volume plates (Corning 3820), and the fluorescent polarization signal was measured using a BMG Pherastar FS plate reader. Fluorescent tracers referred to in the text are bicyclic peptides that have been fluoresceinated using 5,6-carboxyfluorescein. Fluoresceination may be performed on the N-terminal amino group of the peptide, which is separated from the bicycle core sequence by a sarcosine spacer (usually Sar5). This can be done during Fmoc solid phase synthesis or post-synthetically (after cyclization with the molecular scaffold reagent and purification) if the N-terminal amino group is unique to the peptide. Fluoresceination can also be performed on the C-terminus, usually on a Lysine introduced as the first C-terminal residue, which is then separated from the bicycle core sequence by a sarcosine spacer (usually Sar6). Thus, N-terminal tracers can have a molecular format described as Fluo-Gly-Sar5-A(Bicycle-CoreSequence), and (BicycleCoreSequence)-A-Sar6-K (Fluo) for a C-terminally fluoresceinated construct.

| Ki | Binder |
| --- | --- |
| < 500 nM | AC[dA]NE[1Nal][dA]CEDFYD[Tle]C (linker 2-8-15 via MSR‑E, also called 1-93) [Compound I-93] |
| ≥ 500 nM and < 1000 nM | AC[dA]NE[1Nal][dA]CEDFYD[Tle]C (linker 2-8-15 via MSR‑D; not fully specified; reading uncertain, also called 1-92) [Compound I-92] |
| < 500 nM | AC[dA]NE[1Nal][dA]CEDFYD[Tle]C (linker 2-8-15 via MSR‑B, also called 1-90) [Compound I-90] |
| < 500 nM | AC[dA]NE[1Nal][dA]CEDFYD[Tle]C (linker 2-8-15 via MSR‑H, also called 1-96) [Compound I-96] |
| ≥ 500 nM and < 1000 nM | AC[dA]NE[1Nal][dA]CEDFYD[Tle]C (linker 2-8-15 via MSR‑G, also called 1-95) [Compound I-95] |
| < 500 nM | AC[dA]NE[1Nal][dA]CEDFYD[Tle]C (linker 2-8-15 via MSR‑C, also called 1-91) [Compound I-91] |
| < 500 nM | AC[dA]NE[1Nal][dA]CEDFYD[Tle]C (linker 2-8-15 via MSR‑F, also called 1-94) [Compound I-94] |

target: T2, EphA2 (UniProt P29317 25-534, limits assumed, biotinylated with EZ-Link Sulfo-NHS-LC-Biotin (sites not given)); assay: SPR (Biacore), biotinylated EphA2 on streptavidin, peptide as analyte, n = 2
T2 construct: Fc-tagged proteins are also mentioned; also called ephrin type-A receptor 2; biotinylated EphA2
Method: SPR Measurements: Non-Fc fusion proteins were biotinylated with EZ-Link™ Sulfo-NHS-LC-Biotin for 1 hour in 4 mM sodium acetate, 100 mM NaCl, pH 5.4 with a 3× molar excess of biotin over protein. The degree of labelling was determined using a Fluorescence Biotin Quantification-Kit (Thermo) after dialysis of the reaction mixture into PBS. For analysis of peptide binding, a Biacore T200 10 instrument was used utilising a XanTec CMD500D chip. Streptavidin was immobilized on the chip using standard amine-coupling chemistry at 25° C. with HBS—N (10 mM HEPES, 0.15 M NaCl, pH 7.4) as the running buffer. Briefly, the carboxymethyl dextran surface was activated with a 7 min injection of a 1:1 ratio of 0.4 M 1-ethyl-3-(3-dimethylaminopropyl) carbodiimide hydrochloride (EDC)/0.1 M N-hydroxy succinimide (NHS) at a flow rate of 10 μl/min. For capture of streptavidin, the protein was diluted to 0.2 mg/ml in 10 mM sodium acetate (pH 4.5) and captured by injecting 120 μl onto the activated chip surface. Residual activated groups were blocked with a 7 min injection of 1 M ethanolamine (pH 8.5):HBS—N (1:1). Buffer was changed to PBS/0.05% Tween 20 and biotinylated EphA2 was captured to a level of 500-1500 RU using a dilution of protein to 0.2 μM in buffer. A dilution series of the peptides was prepared in this buffer with a final DMSO concentration of 0.5% with a top peptide concentration was 50 or 100 nM and 6 further 2-fold dilutions. The SPR analysis was run at 25° C. at a flow rate of […] with 60 seconds association and 900-1200 seconds dissociation. Data were corrected for DMSO excluded volume effects. All data were double-referenced for blank injections and reference surface using standard processing procedures and data processing and kinetic fitting were performed using Scrubber software, version 2.0c (BioLogic Software).
Data were fitted using simple 1:1 binding model allowing for mass transport effects where appropriate for binding of Bicycle Drug Conjugates, a Biacore 3000 instrument was used. For biotinylated proteins immobilisation levels were 1500 RU and the top concentration was 100 nM. Otherwise the method was the same as described above using either the CMD500D or a CM5 chip (GE Healthcare).

T2 sequence (P29317 25-534 limits assumed): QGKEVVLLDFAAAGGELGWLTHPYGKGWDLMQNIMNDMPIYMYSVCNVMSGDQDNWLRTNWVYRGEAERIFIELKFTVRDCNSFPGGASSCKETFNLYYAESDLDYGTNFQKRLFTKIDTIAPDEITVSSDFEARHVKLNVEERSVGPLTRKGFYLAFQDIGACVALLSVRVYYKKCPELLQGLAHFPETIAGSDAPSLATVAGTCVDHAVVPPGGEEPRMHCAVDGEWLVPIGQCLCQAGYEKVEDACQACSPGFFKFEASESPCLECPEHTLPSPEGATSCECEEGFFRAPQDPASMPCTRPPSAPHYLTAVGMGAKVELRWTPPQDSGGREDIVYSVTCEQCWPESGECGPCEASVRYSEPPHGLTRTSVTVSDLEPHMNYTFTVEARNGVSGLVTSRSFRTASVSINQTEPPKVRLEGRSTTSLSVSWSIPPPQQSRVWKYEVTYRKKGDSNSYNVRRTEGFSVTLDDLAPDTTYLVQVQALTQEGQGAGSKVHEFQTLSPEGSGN

| Kd | Binder |
| --- | --- |
| < 500 nM | ADVHCPWGPFWCPVNRPGCA (linker 5-12-19 via MSR‑C; also: a note names MSR-B as the scaffold) [Compound I-101] |
| < 500 nM | ADVHCPWGPFWCPVNRPGCA (linker 5-12-19 via MSR‑H; not fully specified) [Compound I-106] |
| < 500 nM | ADVHCPWGPFWCPVNRPGCA (linker 5-12-19 via MSR‑B″) [Compound I-100] |
| < 500 nM | ADVHCPWGPFWCPVNRPGCA (linker 5-12-19 via MSR‑F; not fully specified) [Compound I-104] |
| < 500 nM | ADVHCPWGPFWCPVNRPGCA (linker 5-12-19 via MSR‑G; not fully specified) [Compound I-105] |
